Assay results taken from patent US20220089752A1 (University of California, published 2022).
Changes are numbered by the printed parent chain.

Tests used:
[1] = molecular target: activated leukocyte cell adhesion molecule (ALCAM) on human cell lines (human) (UniProt Q13740); assay: cell-based or functional assay
[2] = molecular target: ephrin type-A receptor 2 (EphA2) on cells (human) (UniProt P29317); assay: cell-based or functional assay
[3] = molecular target: T1, mouse recombinant EphA2-Fc fusion protein (mouse, UniProt Q03145 26-535, limits assumed); assay: flow cytometry of yeast-displayed scFv with mouse recombinant EphA2-Fc, curve fit of normalized MFI (apparent KD)
T1 construct: also called mouse EphA2; not shown: Fc part
T1 sequence (Q03145 26-535 limits assumed): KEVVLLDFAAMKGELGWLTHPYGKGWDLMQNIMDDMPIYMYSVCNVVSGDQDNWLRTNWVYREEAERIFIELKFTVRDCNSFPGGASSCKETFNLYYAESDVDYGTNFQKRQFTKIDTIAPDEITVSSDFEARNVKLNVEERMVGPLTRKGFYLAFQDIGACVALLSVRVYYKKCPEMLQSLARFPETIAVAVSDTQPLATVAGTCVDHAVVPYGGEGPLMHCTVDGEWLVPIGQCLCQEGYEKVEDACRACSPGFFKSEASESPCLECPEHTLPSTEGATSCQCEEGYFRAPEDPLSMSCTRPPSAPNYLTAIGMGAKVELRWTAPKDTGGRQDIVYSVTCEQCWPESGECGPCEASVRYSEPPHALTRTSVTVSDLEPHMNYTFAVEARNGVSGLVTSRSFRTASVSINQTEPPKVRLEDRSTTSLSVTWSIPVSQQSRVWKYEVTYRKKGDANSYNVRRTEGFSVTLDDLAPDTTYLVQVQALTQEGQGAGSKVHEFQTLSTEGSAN
Excerpt: (§1) In this experiment, RYRgerm is the germline version of RYR. The remaining samples were RYRgerm derivatives with high binding affinity. Apparent KD values were estimated by curve-fitting of normalized MFI values. FIG. 10B: Apparent KD measurement of four new EphA2 scFvs binding affinity to mouse recombinant EphA2-Fc fusion protein. Apparent KD values were estimated by curve-fitting of normalized MFI values.
(§2) This Example describes experiments performed to identify new versions of EphA2 binding scFv antibodies with improved binding affinity. The original EphA2 binding scFv RYR has been described previously in PCT/US2015/039741, in which EphA2 binding scFv RYR was named HCA-F1 and a germline version of RYR was named RYRgerm. To identify new versions of EphA2 binding scFv antibodies improved binding affinity for EphA2, yeast display mutagenesis libraries based on RYRgerm were generated and selected by FACS for higher affinity binders. Four new EphA2 scFvs with high binding affinity for EphA2 were identified and named […], RYRgerm_102919_15, RYRgerm_102919_22, and RYRgerm_102919_33, respectively. The amino acid sequences of VH and VL regions as well as the CDRs for these newly identified EphA2 scFvs are presented in Tables 4-5 and the Sequence Listing. In these eperiments, both human and mouse recombinant EphA2 proteins were used in selection to maintain cross-species binding. Apparent affinity was measured by flow cytometry for binding to both human and mouse EphA2.

recombinant human EphA2 [4] = molecular target: T2, recombinant human EphA2 (human, UniProt P29317 25-534); assay: flow cytometry of yeast-displayed scFv with human recombinant EphA2, curve fit of normalized MFI (apparent KD)
T2 construct: also called human recombinant EphA2 protein
T2 sequence (P29317 25-534 limits assumed): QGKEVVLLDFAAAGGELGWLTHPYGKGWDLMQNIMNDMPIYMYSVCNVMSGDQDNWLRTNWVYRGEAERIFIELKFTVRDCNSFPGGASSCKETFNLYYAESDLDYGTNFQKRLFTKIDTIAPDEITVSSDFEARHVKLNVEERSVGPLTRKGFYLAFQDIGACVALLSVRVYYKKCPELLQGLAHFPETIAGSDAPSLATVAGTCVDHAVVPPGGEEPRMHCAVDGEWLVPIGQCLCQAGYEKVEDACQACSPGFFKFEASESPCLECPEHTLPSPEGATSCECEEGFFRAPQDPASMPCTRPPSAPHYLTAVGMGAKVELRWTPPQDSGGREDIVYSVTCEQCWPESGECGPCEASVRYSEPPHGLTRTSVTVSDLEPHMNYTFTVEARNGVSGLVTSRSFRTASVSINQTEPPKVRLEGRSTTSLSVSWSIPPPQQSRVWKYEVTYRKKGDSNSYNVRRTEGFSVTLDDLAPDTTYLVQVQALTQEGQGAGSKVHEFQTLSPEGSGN
Excerpt: as §1, with “FIGS. 10A-10B graphically illustrate the selection and characterization of anti-EphA2 scFvs from yeast display mutagenesis libraries. FIG. 10A: Apparent KD measurement of four new EphA2 scFvs binding affinity to human recombinant EphA2 protein. In” for “In”
as §2

recombinant human EphA2 [5] = molecular target: T2, recombinant human EphA2; assay: flow cytometry of yeast-displayed scFv with recombinant human EphA2 at 0-100 nM
Excerpt: as §1
as §2, with “In these eperiments, both human and mouse recombinant EphA2 proteins were used in selection to maintain cross-species binding.” left out

recombinant human EphA2 [6] = molecular target: T2, recombinant human EphA2; assay: BLI (Probe Life Gator), IgG1 on anti-human Fc probes, 100 nM recombinant human EphA2, 25 C
[7] = molecular target: T3, ephrin type-A receptor 2 (EphA2) on cells (human, UniProt P29317 24-976); assay: flow cytometry on DU145 cells, 1 h at 25 C, 40 pM to 125 nM, MFI curve fit (apparent KD)
T3 construct: whole, on cells
T3 sequence (P29317 24-976): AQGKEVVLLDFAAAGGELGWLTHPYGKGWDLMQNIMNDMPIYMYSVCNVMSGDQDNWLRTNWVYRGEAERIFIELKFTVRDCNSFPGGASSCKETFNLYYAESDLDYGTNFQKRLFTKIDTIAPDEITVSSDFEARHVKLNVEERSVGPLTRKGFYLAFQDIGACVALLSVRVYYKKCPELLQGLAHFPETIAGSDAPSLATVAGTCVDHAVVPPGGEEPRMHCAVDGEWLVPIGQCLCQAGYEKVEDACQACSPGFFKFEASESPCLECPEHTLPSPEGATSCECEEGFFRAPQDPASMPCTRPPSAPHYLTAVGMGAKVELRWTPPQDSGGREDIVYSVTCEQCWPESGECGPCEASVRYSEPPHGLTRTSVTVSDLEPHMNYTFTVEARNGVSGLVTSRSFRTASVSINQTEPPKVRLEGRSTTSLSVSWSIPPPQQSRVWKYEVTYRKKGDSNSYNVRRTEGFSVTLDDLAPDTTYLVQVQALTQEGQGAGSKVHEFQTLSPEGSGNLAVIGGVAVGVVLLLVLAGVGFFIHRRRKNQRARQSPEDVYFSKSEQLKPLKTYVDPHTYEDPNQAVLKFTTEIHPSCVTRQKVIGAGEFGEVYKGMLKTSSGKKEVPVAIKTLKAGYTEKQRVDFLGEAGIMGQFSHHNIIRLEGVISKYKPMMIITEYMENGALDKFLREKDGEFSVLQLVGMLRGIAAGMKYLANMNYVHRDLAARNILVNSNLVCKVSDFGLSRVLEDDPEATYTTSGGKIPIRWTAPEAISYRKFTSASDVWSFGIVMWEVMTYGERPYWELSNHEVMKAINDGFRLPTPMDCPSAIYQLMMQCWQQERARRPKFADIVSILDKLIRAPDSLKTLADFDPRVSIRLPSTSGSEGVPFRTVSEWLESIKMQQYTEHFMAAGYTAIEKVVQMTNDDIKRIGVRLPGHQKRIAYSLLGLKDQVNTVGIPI
Method: (§3) In these experiments, apparent binding affinity of RYR IgG1 versus RYRgerm_102919_15 IgG1 on DU145 cells was evaluated. In these experiments, DU145 cells were incubated for 1 h at 25° C. with RYR or RYRgerm_102919_15 at a range of concentrations between 40 pM to 125 nM, washed, and binding detected with anti-human Alexa Fluor 647. MFI values were curve-fit to generate the apparent KD values.

[8] = molecular target: T3, ephrin type-A receptor 2 (EphA2) on …; assay: flow cytometry on DU145 cells (apparent KD)
Method: as §3

[9] = molecular target: T4, activated leukocyte cell adhesion molecule (ALCAM) on human cell lines (human, UniProt Q13740 28-583); assay: FACS on live DU145 cells, 3F1 IgG at 4 C overnight, Alexa 647 anti-human IgG
T4 construct: whole, on cells
T4 sequence (looked up): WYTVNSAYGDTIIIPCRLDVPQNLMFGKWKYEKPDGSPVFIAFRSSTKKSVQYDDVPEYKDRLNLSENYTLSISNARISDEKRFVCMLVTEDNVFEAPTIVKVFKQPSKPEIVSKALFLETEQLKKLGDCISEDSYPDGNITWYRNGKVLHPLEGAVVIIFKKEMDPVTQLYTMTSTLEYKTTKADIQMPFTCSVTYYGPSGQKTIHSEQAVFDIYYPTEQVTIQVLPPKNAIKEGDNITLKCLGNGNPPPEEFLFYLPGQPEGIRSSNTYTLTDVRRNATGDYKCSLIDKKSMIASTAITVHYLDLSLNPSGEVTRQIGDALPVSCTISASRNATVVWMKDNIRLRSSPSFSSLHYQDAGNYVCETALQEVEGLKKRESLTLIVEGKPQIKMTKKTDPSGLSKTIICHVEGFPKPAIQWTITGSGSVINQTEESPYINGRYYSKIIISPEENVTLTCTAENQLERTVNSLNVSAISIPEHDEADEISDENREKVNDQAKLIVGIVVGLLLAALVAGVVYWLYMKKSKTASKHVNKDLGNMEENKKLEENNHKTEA
Method: (§4) FIGS. 6A-6D graphically illustrate the selection and characterization of anti-ALCAM scFvs from phage display library. FIG. 6A: Enrichment of ALCAM-binding phage through three rounds of selection. Recombinant Fc-fusion of ALCAM-V domain was immobilized on magnetic beads and utilized for scFv phage display library selection. Enrichment was calculated by dividing phage output titer by input phage titer (y-axis on the left). Binding activity of polyclonal phages amplified from each round output was described as folds against the binding of the unselected phage library (y-axis on the right). FIG. 6B: After three rounds of selection, FACS was performed to screen out monoclonal phage binding to the ALCAM^high DU145 cell line. FIG. 6C: Apparent KD of 3F1 IgG on live ALCAM-expressing cells. DU145 cells were incubated with varying concentrations of 3F1 IgG at 4° C. overnight and analyzed by FACS using Alexa® 647-conjugated anti-human IgG. KD value was estimated by curve fitting using GraphPad Prism (GraphPad Software). FIG. 6D: Confocal microscopy study of cellular localization of anti-ALCAM 3F1 IgG. Tumor cell lines were seeded in chamber-well slide and incubated with 3F1 IgG at 37° C. for 2 hours. Antibodies were stained with Alexa® 647-conjugated anti-human antibody (red). […] ALCAM expression measured using 3F1 IgG was shown below microscopic images (lower panel). […]

[10] = molecular target: T4, activated leukocyte cell adhesion …; assay: FACS titration of the IgG1 on live DU145 cells, curve fit (apparent KD)
Method: as §4

Sequence of ephrin type-A receptor 2 (EphA2) on cells (human) (P29317 24-976): as the sequence (P29317 24-976) above

An ALCAM Internalization (% over ctrl, Mean, n = 2); HEK293-EphA2#2 cells [1] of 14.6 % over ctrl, an ALCAM Internalization (% over ctrl, Mean, n = 2); HEK293-EphA2#8 cells [1] of 0.5 % over ctrl and an ALCAM Internalization (% over ctrl, Mean, n = 2); HEK293-EphA2#31 cells [1] of 9.2 % over ctrl were found for “control C10/RYR bsIgG (bispecific antibody)” in this work. For the same molecule, the ALCAM Internalization (% over ctrl, Mean, n = 2); HEK293-EphA2#42 cells [1] was -16.5 % over ctrl, the ALCAM Internalization (% over ctrl, Mean, n = 2); HEK293-EphA2#C9 cells [1] was -9.6 % over ctrl and the ALCAM Internalization (% over ctrl, Mean, n = 2); HEK293-EphA2-0.02 cells [1] was 28.6 % over ctrl. For the same molecule, the ALCAM Internalization (% over ctrl, Mean, n = 2); HEK293-EphA2-0.1 cells [1] was -22.4 % over ctrl, the ALCAM Internalization (% over ctrl, Mean, n = 2); HEK293-EphA2-0.5 cells [1] was -36.3 % over ctrl and the ALCAM Internalization (% over ctrl, Mean, n = 2); HEK293-EphA2-2.5 cells [1] was 7.1 % over ctrl. The ALCAM Internalization (% over ctrl, Mean, n = 2); HEK293-SiRNA2 cells [1] was -6 % over ctrl, the ALCAM Internalization (% over ctrl, Mean, n = 2); HEK293-siRNA1 cells [1] was -3.4 % over ctrl and the ALCAM Internalization (% over ctrl, Mean, n = 2); HEK293-siRNA3 cells [1] was -4.4 % over ctrl. The ALCAM Internalization (% over ctrl, Mean, n = 2); HEK293 cells [1] was 10.8 % over ctrl and the surface EphA2 removed from pancreatic cancer cells (FACS) [2] was 85%.

B1: RYRgerm_102919_22 scFv (scFv)
scFv: EVQLVESGGGLVQPGGSLRLSCAASGFTFSSYSMNWVRQAPGKGLEWVSYISSSSSTIYYADSVKGRFTISRDNAKNSLYLQMNSLRAEDTAVYYCARYRLPNFWSGYPNYGMDVWGQGTTVTVSSGGGGSGGGGSGGGGSQSVLTQPPSVSGAPGQRVTISCTGSSSNIGAGYDVHWYQQLPGTAPKLLIYGNSNRPSGVPDRFSGSKSGTSASLAITGLQAEDEADYYCQSYDSSLSGHVVFGGGTKLTVL
A Kd [3] of 1.34 nM and a Kd (recombinant human EphA2 [4]) of 28.1 nM were found for B1 in this work.

B2: RYRgerm scFv (scFv)
chain: B1 scFv with N103D
A Kd [3] of 115 nM and a Kd (recombinant human EphA2 [4]) of 355 nM were found for B2 in this work.

B3: RYRgerm_102919_15 scFv (scFv)
scFv: B1 scFv with M113T
For B3, the Kd [3] was 2.01 nM, the Kd (recombinant human EphA2 [4]) was 5.58 nM and the “EC50 (read off the curve)” value (recombinant human EphA2 [5]) was about 5 nM.

B4: RYRgerm_102919_14 scFv (scFv)
scFv: B1 scFv with F29S
notes: also called RYRgerm_102019_14
A Kd [3] of 2.12 nM and a Kd (recombinant human EphA2 [4]) of 21.3 nM were found for B4 in this work.

B5: RYRgerm_102919_33 scFv (scFv)
scFv: B1 scFv with L101F, N103D
A Kd [3] of 2.87 nM and a Kd (recombinant human EphA2 [4]) of 42.5 nM were found for B5 in this work.

B6: RYR IgG1 (antibody, V domains shown)
VH: QVQLQESGGGLVQPGGSLRLSCAASGFTFSSYSMNWVRQAPGKGLEWVSYISSSSSTIYYADSVKGRFTISRDNAKNSLYLQMNSLRAEDTAVYYCARYRLPDFWSGYPNYGMDVWGQGTTVTVSS
VL: QSVLTQPPSVSGAPGQRVTISCTGSSSNIGAGYDVHWYQQLPGTAPKLLIYGNSNRPSGVPDRFSGSKSGTSASLAITGLQAEDEADYYCQSYDSSLSGHVVFGGGT
notes: Recombinant human IgG1 built from the original EphA2 scFv RYR; also called original RYR; HCA-F1
A Kd (recombinant human EphA2 [6]) of about 28 nM, a koff (recombinant human EphA2 [6]) of 0.0145 s⁻¹ and a kon (recombinant human EphA2 [6]) of 518000 M⁻¹ s⁻¹ were found for B6 in this work. For the same molecule, the Kd [7] was 23.7 nM.

B7: RYRgerm_102919_15 IgG1 (antibody, V domains shown)
VH: B6 VH with Q1E, Q5V, D103N, M113T
VL: QSVLTQPPSVSGAPGQRVTISCTGSSSNIGAGYDVHWYQQLPGTAPKLLIYGNSNRPSGVPDRFSGSKSGTSASLAITGLQAEDEADYYCQSYDSSLSGHVVFGGGTKLTVL
notes: Recombinant human IgG1 built from the scFv RYRgerm_102919_15
In the case of B7, the Kd (recombinant human EphA2 [6]) is reported as about 5 nM, the “fold increase in binding affinity against RYR IgG1” value (recombinant human EphA2 [6]) is reported as about 5 fold and the koff (recombinant human EphA2 [6]) is reported as 0.00132 s⁻¹. For the same molecule, the kon (recombinant human EphA2 [6]) was 262000 M⁻¹ s⁻¹, the “fold increase in binding affinity against RYR IgG1” value [8] was about 100 fold and the Kd [7] was 0.23 nM.

B8: anti-ALCAM 3F1 IgG1 (antibody, V domains shown)
VH: EVQLVESGGGLVKPGGSLRLSCAASGFTLSDYSMNWVRQAPGKGLEWVASISSRSSYIYYADSVKGRFTISRDNAKNSLYLGMNSLRAEDTAVYYCTGGQGYSGYDGFQHWGQGTLVTVSS
VL: QSALTQPPSASGTPGQRVTISCSGSSSNIGSNSVSWYQQLPGTAPKLLIYSNTHRPSGVPDRFSGSKSGTSASLAISGLLSEDEADYYCASWDDSLNGGVFGGGTQLTVL
notes: also called anti-ALCAM mAb 3F1
In the case of B8, the “EC50 (read off the curve)” value [9] is reported as about 0.02 nM and the Kd [10] is reported as 0.0206 nM.
